Source: paper PMC8934651, “Yeast Ssd1 is a non-enzymatic member of the RNase II family with an alternative RNA recognition site”

Legend:
Ssd1 ΔN338 [1] = target: T1, Ssd1 ΔN338 (Saccharomyces cerevisiae (S288C/BY4741 …, UniProt P24276 339-1250)); assay: fluorescence anisotropy; Anisotropy: 20 nM RNA, 20 mM HEPES pH 7.5, 150 mM NaCl, 1 mM DTT, 0.01% Tween 20, 15 and 30 min on ice; EMSA: 0.5 uM RNA, 20 mM HEPES pH 7.5, 150 mM K acetate; settings: protein: recombinant, tags: His tag cleaved with 3C protease
T1 sequence: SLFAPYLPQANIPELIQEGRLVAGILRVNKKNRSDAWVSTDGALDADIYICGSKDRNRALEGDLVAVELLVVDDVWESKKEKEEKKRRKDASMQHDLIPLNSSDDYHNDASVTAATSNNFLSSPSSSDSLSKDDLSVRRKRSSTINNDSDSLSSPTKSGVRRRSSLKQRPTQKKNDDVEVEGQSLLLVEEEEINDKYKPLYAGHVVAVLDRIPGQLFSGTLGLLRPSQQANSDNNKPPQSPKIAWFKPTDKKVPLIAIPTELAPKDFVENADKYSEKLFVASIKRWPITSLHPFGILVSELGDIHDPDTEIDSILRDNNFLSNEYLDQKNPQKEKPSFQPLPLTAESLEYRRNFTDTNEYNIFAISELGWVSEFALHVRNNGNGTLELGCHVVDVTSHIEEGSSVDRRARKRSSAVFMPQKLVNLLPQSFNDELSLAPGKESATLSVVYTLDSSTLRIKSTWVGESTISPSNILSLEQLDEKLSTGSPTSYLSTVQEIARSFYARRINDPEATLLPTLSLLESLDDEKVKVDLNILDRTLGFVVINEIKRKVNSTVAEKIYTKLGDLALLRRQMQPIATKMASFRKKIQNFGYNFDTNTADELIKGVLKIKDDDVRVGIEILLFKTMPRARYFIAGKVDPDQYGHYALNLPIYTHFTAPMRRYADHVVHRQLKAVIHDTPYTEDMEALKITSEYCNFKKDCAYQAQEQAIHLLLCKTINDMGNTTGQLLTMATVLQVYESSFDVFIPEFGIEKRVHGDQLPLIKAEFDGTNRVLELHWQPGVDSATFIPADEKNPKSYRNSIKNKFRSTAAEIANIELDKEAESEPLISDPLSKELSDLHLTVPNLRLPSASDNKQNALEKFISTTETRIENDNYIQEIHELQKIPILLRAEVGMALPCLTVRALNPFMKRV

Ssd1 ΔN338 [2] = target: T1, Ssd1 ΔN338; assay: as above; settings: protein: recombinant; tags: His tag cleaved with 3C protease; label: 5'-Cy3
Ssd1 ΔN338 [3] = target: T1, Ssd1 ΔN338; assay: EMSA; 5 mM Mg acetate; no significant binding; Anisotropy: 20 nM RNA, 20 mM HEPES pH 7.5, 150 mM NaCl, 1 mM DTT, 0.01% Tween 20, 15 and 30 min on ice; EMSA: 0.5 uM RNA, 20 mM HEPES pH 7.5, 150 mM K acetate; settings: protein: recombinant; tags: His tag cleaved with 3C protease; label: 5'-DY681

Binder: CAACUAAUUUUCACUCCUUUAA (ssRNA) [DUO-21mer]
- Kd (Ssd1 ΔN338 [1]; label: 5'-Cy3): 36 nM

Binder: AUUUUCACUCCUUUAA (ssRNA) [SEE-15mer]
- Kd (Ssd1 ΔN338 [1]; label: 5'-DY681 (EMSA), 5'-Cy3 (anisotropy)): 166 nM

Binder: UAAUUUUCACUCCUUUAA (ssRNA) [DUO-17mer]
- Kd (Ssd1 ΔN338 [1]; label: 5'-Cy3): 124 nM

Binder: CUUCCAACUAAUUUUUAUCCCUCUAA (ssRNA) [SUN4-DUO_Mut2]
- Kd (Ssd1 ΔN338 [1]; label: 5'-Cy3): 104 nM

Binder: CUUCCGGCUAAUUUUCACUCCUUUAA (ssRNA) [SUN4-DUO_Mut1]
- binding signal (Ssd1 ΔN338 [2]): ~2 fold reduction in affinity vs DUO-25mer

Binder: ACUAAUUUUCACUCCUUUAA (ssRNA) [DUO-19mer]
- Kd (Ssd1 ΔN338 [1]; label: 5'-Cy3): 42 nM

Binder: CUUCCAACUAAUUUUCACUCCUUUAA (ssRNA) [DUO-25mer]
- Kd (Ssd1 ΔN338 [1]; label: 5'-Cy3 (anisotropy)): 8 nM

Binder: CUUCCGGCUAAUUUUUAUCCCUCUAA (ssRNA) [SUN4-DUO_Mut3]
- binding signal (Ssd1 ΔN338 [2]): ~10 fold further loss of affinity (vs Mut2)

Binder: AGAACUCUUCCAACUA (ssRNA) [CCACCU-16mer (CCAACU motif)]
- binding result (Ssd1 ΔN338 [3]): no binding
